Laboratory results taken from IntAct's records for PubMed 24413433.

B1: Telomere repeats-binding bouquet formation protein 1 (Mus musculus), Q8C0V1-1 (parent)
chain: MESEKPKKTQEMKTDLKLLLECLKYHMGNPLSQKEVLITIHSVCKQNSDAGIYFREIGGLMFIINLAKSSEQSLVKEAALYTLGSIAEENVYCQQSLCTSELFQDLTGLLTNDDSNTNLKRMSVYVLLVLVSNNRNGQTLVREVGCIEVLSQMFRTVLSNYELNLSDNSVFQSYLLWSSVCSTLCVCVNNPQNDENQMLCCSLFPCVNEWLMNCMRPEVIRPICSFIGLTLANNTHAQNCFVSSGGLDVLCQVLVQLESDSHNTLSSAKLAVIVTKTMDACITDNSAAFTVVLSKYHIVSTLLALLLHESLDSREKFSIILAIGHCTEDCEKNQYELLKNNGLPLMIQALTEFKNEDLSKAATYVLHNCKKITGKLSLSLGQNSFGENEIELKDISEKETLREHWKAAKEILCRIKQFEKGGKEEKQQNRSGHYKDNTPSMKVNIQTNLKRLCADSTGGTRAEDKDINQSRELRSYKPSEIMSKACANENQLTTRKKNTNPVHPFCKEKGQSKIVHETTPSCAQNLDKEKTFDQKDSVSQSSDQVLKHLPHTVKNRKQVPETDPFTLCLDIIDREVGIQATDSCSRMLKYTCSGCIVARKLLNSRNFSKFLHSCAYQCVHHKVIMEAEDKYKNELRKTFICAKKILLTPCRRRQLCKESTASEELKIVHQKPDSKKLPGLEAQALNTSIPEAMERRSPVPGQSGLHKKRRIRKDFTKEEVNYLFHGVKTMGNHWNSILWSFPFQKGRRAVDLAHKYHRLIKGPSCAAL
partner: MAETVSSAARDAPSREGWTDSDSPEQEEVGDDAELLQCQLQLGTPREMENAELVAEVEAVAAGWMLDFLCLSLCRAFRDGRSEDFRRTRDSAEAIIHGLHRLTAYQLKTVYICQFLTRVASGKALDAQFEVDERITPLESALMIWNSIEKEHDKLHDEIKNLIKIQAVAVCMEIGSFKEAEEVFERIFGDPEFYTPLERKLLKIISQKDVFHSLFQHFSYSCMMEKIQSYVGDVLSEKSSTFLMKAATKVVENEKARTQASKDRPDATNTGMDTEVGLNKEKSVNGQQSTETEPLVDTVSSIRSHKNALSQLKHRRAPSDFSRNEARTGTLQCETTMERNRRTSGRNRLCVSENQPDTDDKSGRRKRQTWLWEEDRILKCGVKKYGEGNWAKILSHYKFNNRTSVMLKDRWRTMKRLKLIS

Variants of: B1
Details: with terf1_mouse Terf1, P70371

Row | Variant | effect of a mutation on the interaction
1 | T648D | disrupting interaction strength
